Measured values: the DeepSol protein solubility set

Experiment: soluble on expression in E. coli; label from the status in PepcDB or PDB records

Soluble on expression in E. coli, not soluble:
MGKYDALVELLLEAVKEGANIHQEDCSIPVGISNRHIHLSQADVNTLFGEGYSLTRIKDLSQPGQYACKETLTICGPKGAIENVRILGPERRESQVEILRTDCFKLGLKAPVKLSGELQGTPGMTLVGPKGSVLLSQGVIVAQRHIHMSLEDAQRFGVRDGELVTIQINGLRGGTYANVAIRANNTSQLECHIDTDEANGMDLTPTSRITIIK
MGSDKIHHHHHHMQNGYYQATGGMVTQFNKLDVITNNLANINTSGYKRDDVVIADFKRIFKETQDELPIENHTRDASRFVNTTIDGIPQVSQEYTDFSLGSLKATNNPLDLAMTREDAFYLVQTKDGEVRLTKDGNFQLDDEGYLVNKQGYKVLSSDYFNNPQNAGIRIPNGAVQISVDKNGSIEVDGAQNARLFVAQVDDIRALQKDGDNVYKIDDLTRIRDLKNSNAIRQGFSQGSNVNPVTEMVGLIEANRMVEMYQKVMTAHMDDLNQEAINKLAAVK
MGSDKIHHHHHHMTTLLRTRRFPPLNALRAFEAAARHLNFRLAADELGVTQGAVAQQVRHLEDVVAVQLFRRLPRGLALTREGLEYFSSVQRALQIISDATDALGERPTVLAVSTTPSFASKWLIPRLADFGRLHPDIEVRVIADERLASFRADGVDIAIRLSKPPFPAGLAAELLAPLDIFAVASPKLLDSGPPIRTPADLSTHALLHDAHDLWPEFIEKLGGKGRADPTKGPRFSQSLLAIDAAVAGQGIALTSEPLVERDIAEGRLRRVFDFSFPMSLGFYVVFPQANAHSEALQAMRRWLFAQYGKA
MFAHQNASFPPRPEGRGGKEAVFRLTVFCIITFSSLICEAMKRAYKYRFYPTTEQAELLAQTFGCVRFVYNSILRWRTDAYYERKEKIGYLQANARLTALKKEPEFAWLNDVSCVPLQQSLRHQQTAFANFFAGRAAYPAFKSKRHKQAAEFTASAFKYRDGKLYMAKNKIPLDVRWSRPLPSVPSTVTISKDAAGRYFVSCLCEFEPASLPITSSMVGIDVGLKDLFVTDTGFRSGNPRHTAKYAARLALLQRRLSKKAKGSKNRAKAHLKVARLHAKIADCRLDALHKATRKLINDNQVVCVESLKVRNMIRNPSLSKAIADASWGELVRQLRYKGEWAGRSVVAIDQFFPSSKRCSCCGFIMKKMPLDVRKWQCPECGTDHDRDVNAARNIKAAGLAVLAHGEPVNPESLKAALEHHHHHH
MANDEQQQLLNKIVRDDSQDKQVLLMINGAAGTGKTFLIKLIENSMNRSVRKRVVLMTGSTGKAAKAIGGRTLHCTIGLPNEKPEDLERLKYQAFICVTTRLIIIDEITLLASWHLDATDMVLKRTPKRTDALFGGLSIILVGDLRQLNLGGWRGKKQIDTVFIKVGGYPDPISCQNVCD
MSLAVERLFGTNGIRGIPNDDMSPDFAMSVGKAIGTYVSGEIAFGTDTRLTGDMIKNAVIAGILSTGISVIDLGVLPTPAIQYYSKKHGIYAVVITASHNPPQYNGIKVIDKDGTELERPGEEKIEEIFYSKAFRVVKWENIGRIRQVSDAIDIYINGVISNVDSDNIKSHAFKVLADAGNGAAYYSTPKLLEKLGCSITTLNANPDGRFTARNAEPVPENLVNLISLMKSGRFDLGIAHDGDADRAVFIDEKGNFIDGDRMLALITKYIAKAGDVVVTPVSSSDTIADICNAIGAKLIRTKVGAPIVARAMIDNGATIGGEENGGVIYGKHQYCRDGAMTVSLVLNLMASTNKKLSELISELPVYYLIKKKVERRVDWPSLARELKKGERVDETDGIKILKDDGWILIRPSGTEKILRIYAHSSDFELANKYCEQYIRKVNDIQDKLSEGHHHHHH
MEWAMNEHHQPFEEIRHYGTEGQEFWSARELAPLLDYRDWRNFQKVLARATQACEASNQAASDHFVETTKMVVLGSGAQRELEDVHLSRYACYLVVQNGDPAKPVIAAGQTYFAIQTRRQELADDEAFKQLREDEKRLFLRNELKEHNKQLVEAAQQAAVATATDFAIFQNHGYQGLYGGLDQKAIHQLKGLKKSQKILDHMGSTELAANLFRATQTEEKLKRDGVNSKQQANTTHFDVGSKVRQTIQELGGTMPEELPTPQVSIKQLENSVKITEKK
MGSDKIHHHHHHMPEIHQSIAQHYHERTKYDPETIASKSQRLDWAKQPVPFKEYKIGSAIDLKPYLQETPEVFVNDTNGQWWQRLSRLLFRSYGLTARMPSMGNTVYLRAAPSAGGLYPAEVYVVSRGTPLLSPGLYNYQCRTHSLIHYWESDVWQSLQEACFWHPALESTQLAIIVTAVFYRSAWRYEDRAYRRICLDTGHLLGNIELSAAITDYRPHLIGGFIDEAVNDLLYIDPLQEGAIAVLPLADLLDIQQNISPGCTALPSATETNYPQVPDGELLKYFHHHTQISASITGKLNLPTVIQEKSLEDKYNFPFCLKISTVSAPIYWGENLSDLEITMHKRRSTRAYNGEELTFDELKALLDFTYQPQNYIDQSLDNSPDYFDLNLIETFIAVCGVQGLEAGCYYYAPKAQELRQIRFKNFRRELHFLCLGQELGRDAAAVIFHTSDLKSAIAQYGDRVYRYLHMDAGHLGQRLNLAAIQLNLGVSGIGGFFDDQVNEVLGIPNDEAVIYITTLGRPR
MGSDKIHHHHHHMEPDFYHGFYPPTPLKTYPEEIFYIGKCTENMQPVGLDIGTNYTKITADGKNVLLYPSIVAYGEEKDWSLKGETKSVYIGDEALSIVQSMENVEVLRPLHEGRVLHTSYLELAKYGLNKLKVKDGLIATGLPVKSSKKEREELKRELESELNSKVLIFPEPVGTMAYMGMETGVCVDIGFGTTDVLVIADMEYLKGDTMLMGVDKLYENLEVAVRNRIGISITPEEMTKLLTTEGYEIGRIRGGKKVSVSREEIMPEYEGYVKTWVERIASRVKLVLEGLSTTLVENFAITGGGSMLPGVYEMFKESFSDIGDVKRPDEPIKANSIGYYILAKSLVVEAETEQSGDAEILDADDKKKGRKGKK
SPLHWLQWERGGVGSDQDLGCHWLPLPTGSDGGDAVEYNPNLLDDPQWPCGKHKRVLIFASYMTTVIEYVKPADLKKDMNETFREKFPHIKLTLSKIRSLKREMRNLSEECSLEPVTVSMAYVYFEKLVLQGKLNKQNRKLCAGACVLLAAKISSDLRKSEVKQLIDKLEERFRFNRKDLIGFEFTVLVALELALYLPENQVLPHYRRLTQQF
MTKMLKLFDAHFHIIDYRFPLITNQSYLPPEFTVEDYLQRAKPLNICGGAVVSGSFQAFDQSYLLAALSILGSDFVGVTQLPATVSDEEIIQLNQKGIRAVRFNVKRGGSENIHRLKYFAHRIYEMVRWHVEIYVDSKDLGDLTSLLLELPAVSIDHLGLSHSGFSQLLHLVEHGIKIKASGFGRVDFDVKKALQTIAQINPDALLFGTDLPSTRAPRPFLDSDIQIIQDLFDEKLTEKILYRNARNFYSKNSSELEHHHHHH
MGSDKIHHHHHHMKRNTAQLKEKLIQTGVEEIKKNGLDQLSLRTIAKNCGVTHGTPYRHFKSKEDYLRVVLTRLSTFLNQEIAQGIDQKVSARDQLAQMGFNLITFTKRYPYFFEALFIKFPFKYMKITQETIVLDSDLPGFDKFKRIVFDLRKEESFTNSEAETLFHFWSFISGLAVLANSPIGRDLDNQAIHTTINHMLDIYIKGEQT

Soluble on expression in E. coli, soluble:
MSLKKLILTTAALALSAGMAMADTVRMGTEGAYPPYNFINDAGEVDGFERELGDELCKRAGLTCEWVKNDWDSIIPNLVSGNYDTIIAGMSITDERDEVIDFTQNYIPPTASSYVATSDGADLSGIVAAQTATIQAGYIAESGATLVEFATPEETIAAVRNGEADAVFADRDYLVPIVAESGGELMFVGDDVPLGGGVGMGLRESDGELRGKFDAAITSMKEDGTLNTMIKKWFGEDAAVYEEGHHHHHH
MSLRIAIIITQKTNDLHATVPCFLWRKARYAVDLISAEAKASIMLEMGIHVRCDNTLSKTNFNQYTAAFIPHGNTTRLVEIDKLRKDLEKFVYKPKGPMRWLFSSGNGACVLKEFDLIAPDQLVTVQNEKEMVKLLGKNFIKQPVHVDKNIISCANSCGLTKFSFKVIEELSGIELARKTANLVDHIYKGEGHHHHHH
MGVCFSAIRVTGASSSRRSSQTKSKAAPTPIDTKASTKRRTGSIPCGKRTDFGYSKDFHDHYTIGKLLGHGQFGYTYVAIHRPNGDRVAVKRLDKSKMVLPIAVEDVKREVQILIALSGHENVVQFHNAFEDDDYVYIVMELCEGGELLDRILSKKGNRYSEKDAAVVVRQMLKVAGECHLHGLVHRDMKPENFLFKSAQLDSPLKATDFGLSDFIKPGKRFHDIVGSAYYVAPEVLKRRSGPESDVWSIGVITYILLCGRRPFWDRTEDGIFKEVLRNKPDFSRKPWATISDSAKDFVKKLLVKDPRARLTAAQALSHAWVREGGNATDIPVDISVLNNLRQFVRYSRLKQFALRALASTLDEAEISDLRDQFDAIDVDKNGVISLEEMRQALAKDLPWKLKDSRVAEILEAIDSNTDGLVDFTEFVAAALHVHQLEEHDSEKWQLRSRAAFEKFDLDKDGYITPEELRMHTGLRGSIDPLLDEADIDRDGKISLHEFRRLLRTASISSQRAPSPAGHRNLR
MKQKKAWAIVKEVIEEADIVVEVVDARDPIGTRNKKLERMVLESGKKLLLVMNKADLVPKEWAEEYKRKSEIPVVFISARERKGTGILRRELKKIAKMINKERVKVALIGYPNVGKSTIINVLKGKHSVGTAPIPGYTKGKQMIRLTKKIWLLDTPGVVPIDDFDELVIKGGFPADKIREPVKPALKLIRRILETRKEALTEKFNITEFEDEEDILRKIGERRGIIREGGVVDIEETARWFLREWQTGRFTLFSTEEKREEEYIESFDEILEIIKEQNLTDPRMIIWKFGNILEDYLGAERRFGAIKVGEFMIAIATGFKKCPNAIKFVERITRKNAVAAECFGKKWKGIVAILE
MNKDQSKIPQATAKRLPLYYRFLKNLHASGKQRVSSAELSDAVKVDSATIRRDFSYFGALGKKGYGYNVDYLLSFFRKTLDQDEMTDVILIGVGNLGTAFLHYNFTKNNNTKISMAFDINESKIGTEVGGVPVYNLDDLEQHVKDESVAILTVPAVAAQSITDRLVALGIKGILNFTPARLNVPEHIRIHHIDLAVELQSLVYFLKHYSVLEEIE
SEKLINRVGPNGESRAQAVTSDQEKRLLHQLREITRVMKEGKFIDTSPEKEAEEAPYMEDWEGYPEETYPIYDLSDGIKRRQETILVDYPDLKEPSAEEIAEQMGEIEEEGSERLSWDHLPTDPGAQKDNSVAPCDPKPESCSCCVHEEEDPAVLAENAGFSADGYSEQEEATKENLPQDFTNEGLGVSTDNAHVGGMLRKRNPQGFE
MGSVNGAEALKALYALQEKDLEIDRLRAEAESPPEELVALQGQVEALEERLTNLLERRAELEREYNRHSLDIEDLSAKEKQAEEEQKRAQSAREQTQYENRIQQIKDRIRELLELSTPIMEAMENLEAEIAQVEEELAALRPRLQELLEANRARVAELEAAIAAKVEERTTMAAAIPAQILKEYEAIRRARRGTGVARMAAQGQVYRCEGCNVVLPTHVAQKVVRGQVVRCPSCGRLLWKGE
QMSLEGTEKASWLGEQPQFWSKTQVLDWISYQVEKNKYDASAIDFSRCDMDGATLCNCALEELRLVFGPLGDQLHAQLRDLTSSS
QKEQHSQLNQTKIAYEQRLLNDLEDMDDPLDLFLDYMIWISTSYIEVDSESGQEVLRSTMERCLIYIQDMETYRNDPRFLKIWIWYINLFLSNNFHESENTFKYMFNKGIGTKLSLFYEEFSKLLENAQFFLEAKVLLELGAENNCRPYNRLLRSLSNYEDRLREMNIVENQNSVPDSRERLKGRLIYRTAPFFIRKFLTSS
GSHMFYAVRRGRKTGVFLTWNECRAQVDRFPAARFKKFATEDEAWAFVRKSAS
